Here are results for one substance from patent US20260226158A1.

The target of the assay is human NKp46 on human NKp46-expressing CHO-K1 cells (human) (UniProt O76036). Briefly: flow cytometry on human NKp46-expressing CHO-K1 cells, Alexa Fluor 647 anti-human IgG; upper row of the box.
Chain of human NKp46 on human NKp46-expressing CHO-K1 cells (human) (O76036 22-304): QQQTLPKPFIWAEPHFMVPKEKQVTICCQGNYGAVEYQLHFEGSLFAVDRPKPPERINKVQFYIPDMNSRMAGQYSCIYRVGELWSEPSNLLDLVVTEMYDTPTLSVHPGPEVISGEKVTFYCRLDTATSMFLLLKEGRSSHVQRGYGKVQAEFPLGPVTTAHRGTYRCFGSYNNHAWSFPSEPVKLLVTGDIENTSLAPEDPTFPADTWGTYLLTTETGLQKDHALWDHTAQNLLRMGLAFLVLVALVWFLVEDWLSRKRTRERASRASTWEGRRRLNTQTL

As to Human IgG (antibody), the Geometric Mean : Alexa Fluor 647-H was 206.
